According to article PMC9851723:

Target: SARS-CoV-2 nucleocapsid protein (Np) (SARS-CoV-2, UniProt P0DTC9 1-419)
Test: SPR

B1: A48t-T20-A61t (DNA-BC) (ssDNA)
DNA: TTCCTTAGGGGCACCGCTACATTTTTTTTTTTTTTTTTTTTTACCTTTACAGATCGGATTCTGTGGGGCG
In the case of B1, the Kd is reported as 1.04 nM.
